Here are results for nine substances from patent US20170088603A1.

IgG4 Fc IgM tp L309, sequence (P01861 other isoform, or with tags, fused parts or gaps limits assumed): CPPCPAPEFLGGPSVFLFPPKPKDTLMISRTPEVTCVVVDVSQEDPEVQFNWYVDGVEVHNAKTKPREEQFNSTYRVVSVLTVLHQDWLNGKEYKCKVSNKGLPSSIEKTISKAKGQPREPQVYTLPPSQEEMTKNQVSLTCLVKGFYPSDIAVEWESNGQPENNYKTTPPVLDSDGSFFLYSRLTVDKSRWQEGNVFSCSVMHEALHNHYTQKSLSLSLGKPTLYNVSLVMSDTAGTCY

For the first assay, the target named is Human FcRn with human β2M on MDCK II clone 15 cells (human) (UniProt P55899).
Human FcRn with human β2M on MDCK II clone 15 cells (human), sequence (P55899 24-365, chain 1 of 2): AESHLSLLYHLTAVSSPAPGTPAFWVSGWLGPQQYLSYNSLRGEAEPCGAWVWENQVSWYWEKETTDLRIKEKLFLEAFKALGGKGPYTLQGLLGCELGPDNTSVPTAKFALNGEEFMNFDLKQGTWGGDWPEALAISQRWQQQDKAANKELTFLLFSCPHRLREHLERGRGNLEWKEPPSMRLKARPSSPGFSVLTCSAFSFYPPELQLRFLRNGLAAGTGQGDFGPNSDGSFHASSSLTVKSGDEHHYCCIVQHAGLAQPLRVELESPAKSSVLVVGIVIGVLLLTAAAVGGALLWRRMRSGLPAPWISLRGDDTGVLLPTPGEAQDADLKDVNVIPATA
Human FcRn with human β2M on MDCK II clone 15 cells (human), sequence (P61769 21-119, chain 2 of 2, further chain): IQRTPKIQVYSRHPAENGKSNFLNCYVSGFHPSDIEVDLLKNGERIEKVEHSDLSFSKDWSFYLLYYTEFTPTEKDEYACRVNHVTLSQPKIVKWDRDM
Experiment: not given
For “IgG1 Fc IgM tp L309 (from UniProt P0DOX5 228-449) (Fc fusion)”, the EC50, inhibition of FcRn mediated IgG recycling (cell lysates), percentage inhibition relative to the positive control; blocked ligand biotinylated human IgG [upper panel (cell lysates] stood at 0.37 µg/mL.

For the next assay the target is unchanged. In words: cell-based or functional assay.
“IgG1 Fc IgM tp L309 (from UniProt P0DOX5 228-449) (Fc fusion)” yielded a Blockade of IgG intracellular uptake EC50 of 4.4 µg/mL and a Blockade of IgG recycling EC50 of 0.33 µg/mL.

In turn, IgG1 IgM tail-piece, H310L (Fc fusion) showed a Blockade of IgG recycling (% inhibition at 100 µg/ml) of 45.

Substance IgG1 IgM tail-piece, T307A (Fc fusion) displayed a Blockade of IgG intracellular uptake EC50 of 0.54 µg/mL and a Blockade of IgG recycling EC50 of 0.35 µg/mL.

IgG1 IgM tail-piece, V308F (Fc fusion): the Blockade of IgG intracellular uptake EC50 was 0.12 µg/mL and the Blockade of IgG recycling EC50 was 0.073 µg/mL.

In turn, IgG1 IgM tail-piece, V308P (Fc fusion) displayed a Blockade of IgG intracellular uptake EC50 of 0.34 µg/mL and a Blockade of IgG recycling EC50 of 0.55 µg/mL.

Take “IgG4 Fc IgM tp L309 (from UniProt P01861 106-325) (Fc fusion)”: the Blockade of IgG intracellular uptake EC50 is 5.9 µg/mL and the Blockade of IgG recycling EC50 came out at 1 µg/mL.

Turning to IgG4 IgM tail-piece, T307A (Fc fusion), the Blockade of IgG intracellular uptake EC50 is 0.5 µg/mL.

IgG4 IgM tail-piece, V308F (Fc fusion) came in with a Blockade of IgG intracellular uptake EC50 of 0.42 µg/mL and a Blockade of IgG recycling EC50 of 0.56 µg/mL.

Turning to IgG4 IgM tail-piece, V308P (Fc fusion), the Blockade of IgG intracellular uptake EC50 was 0.51 µg/mL and the Blockade of IgG recycling EC50 stood at 0.42 µg/mL.
